Assay results reported in patent US20160304573A1, “FIBROMODULIN PEPTIDE” (The Regents of the University of California, priority 2010, published 2016).

Legend:
[1] = tested on: Rat-2 (rat fibroblast cell line) cells; assay: Rat-2 cell proliferation, Click-iT Microplate Assay; assay type: cell-based; conditions: FMOD combined with 100 pM TGF-β1, 48 hours; FIG. 16
Method: 2000 cell/well passage 18 Rat-2 (rat fibroblast cell line) cells were seeded in 96-well plates with 200 μl DMEM-10% FBS for 6 hours, followed by overnight serum starving with 200 μl DMEM-0.5% FBS. 200 μl treatment medium, DMEM-0.5% FBS harboring different concentration of FMOD (SEQ ID NO:1), FMOD-F07-C40 peptide with/without 100 pM TGF-βI (SEQ ID NO:64), was added to the well and refreshed on the second day. After 48 hours treatment, proliferation of Rat-2 cells was evaluated by Click-iT® Microplate Assay (Invitrogen).

Rat-2 cells [2] = assay: Rat-2 cell migration/invasion in Matrigel, DAPI nuclear staining; assay type: cell-based
Method: Cell migration/invasion in Matrigel was documented at 200× magnificent after 24 hour treatment and quantitated using DAPI nuclear staining (results shown in FIG. 19A and repeat results in FIGS. 26B and 26C; DAPI pictures are shown in FIG. 19D).
(§1) Similar to FMOD (whole protein), the effect of FMOD peptides and/or TGF-β on cell migration was also evaluated by scratching method (FIGS. 18C and 25D). At the same time, cell migration/invasion in Matrigel was documented at 100× magnificent after 24 hour treatment and quantitated using DAPI nuclear staining (100 rather than 200× magnification was used because one group's invasion is quite low) (see the results in FIG. 20A and DAPI pictures in FIG. 20B). Passage 18 Rat-2 cells (20,000 cells/well) were used for the test under the treatment of 100 pM TGF-β1 (SEQ ID NO:64)/133 (SEQ ID NO:66) with/without 200 nM FMOD-F07-40C in DMEM-0.5% FBS.
Passage 18 Rat-2 cells (20,000 cells/well) were used for the test under the treatment of 100 pM TGF-β1/β3 with/without 200 nM FMOD-F06-40C in DMEM-0.5% FBS (FIG. 20C).

TGF-β3 = biological target: T1, TGF-β3 (Homo sapiens, UniProt P10600); assay: TGF-β3 binding to biotinylated FMOD/FMOD peptides on avidin resin; non-bound TGF-β read by Mv1Lu growth inhibition (MTT)
T1 sequence (P10600 301-412 limits assumed): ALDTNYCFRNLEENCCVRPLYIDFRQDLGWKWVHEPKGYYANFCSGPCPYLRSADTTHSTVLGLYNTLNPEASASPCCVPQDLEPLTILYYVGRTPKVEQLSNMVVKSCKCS
Method: (§2) FMOD (whole protein) (SEQ ID NO:1), FMOD peptides and control protein BSA were biotinylated. While, the biotinylated proteins and peptides were bound to commercial available Piece Monomeric Avidin UltraLink Resin (Piece). The amounts of each test peptides/proteins are 1:1, 10:1, 100:1 and 1000:1 to TGF-βs, respectively. After washing out the non-bound residues, appropriate amount TGF-βs (based on the primary test assay) were added to the resin at 4° C. After overnight binding, non-bound TGF-βs were collected, followed by filter sterilization. Then, the TGF-βs residue were diluted 100 times in DEME-0.5% FBS to ensure the concentration was located in the linear region of TGF-βs on Mv1Lu proliferate inhibition.
(§3) Diluted TGF-βs was added to overnight serum-starved Mv1Lu, and fresh TGF-βs media were added for another 24 hour before MTT assay. Samples with no TGF-βs added were employed as controls.

Rat-2 cells [3] = assay: Rat-2 cell migration by scratching method; assay type: cell-based
Method: 1×10^6 cell/well Rat-2 cells were seeded in 6-well plated with 3 ml DMEM-10% FBS. After 6 hours for adhesion, fresh DMEM-0.5% FBS medium was changed for serum-starving overnight. After pre-warmed DMEM rinsing, four wounds (each 1 mm wide; two horizontal and two vertical) were scratched employing a 1-ml tip for each treatment group. Cells were rinsed by DMEM for three times, followed by incubation with treatment medium [DMEM-0.5 FBS containing 100 pM (2.5 ng/ml) TGF-β1 (SEQ ID NO:64) or -β3 (SEQ ID NO:66) w/o 200 nM (11.2 μg/ml) FMOD (SEQ ID NO:1)] for 24 hours. Photos were captured at both 0-h and 24-h after the scratching. The unclosed distance was measured and quantified as an average gap (A) and migration index (B). Similar results were reproduced in four independent experiments. The scale bar in (A) equal to 100 The asterisks in (B) present P<0.05.
as §1

[4] = tested on: connective tissue growth factor (CTGF) expression; assay: CTGF expression and cell aggregation in Rat-2 cells, confocal staining; assay type: cell-based; conditions: for CTGF expression: 48 h
Method: Results of exemplary tests on each of FMOD and FMOD-P, alone or in combination with TGF-β on CTGF expression are shown in FIGS. 28A-28D. In these tests, 4,000 cells/well passage 18 Rat-2 cells were seeded in 8-well chamber slices in DMEM medium with 10% FBS. After 6 h adhesion, fresh DMEM medium with 0.5% FBS was employed for overnight serum starvation and then treatment media added. Treatment media were changed after 24 h. Cells were fixed and staining at 48 h. Photos were captured at 630× magnifications using a confocal microscope. In these figures, the cells were stained for CTGF (connective tissue growth factor, a factor involved in cell proliferation, migration and matrix production) or DAPI (4′,6-diamidino-2-phenylindole a fluorescent stain that binds strongly to DNA-used for nuclear staining). Merged images showing both CTGF and DAPI staining are also shown.

TGF-β1 = TGF-β1 (Homo sapiens, UniProt P01137); assay: TGF-β1 binding to biotinylated FMOD/FMOD peptides on avidin resin; non-bound TGF-β read by Mv1Lu growth inhibition (MTT); conditions: ratios 1:1, 10:1, 100:1, 1000:1 to TGF-β; overnight 4° C.; FIG. 13
TGF-β1, sequence (P01137 279-390 limits assumed): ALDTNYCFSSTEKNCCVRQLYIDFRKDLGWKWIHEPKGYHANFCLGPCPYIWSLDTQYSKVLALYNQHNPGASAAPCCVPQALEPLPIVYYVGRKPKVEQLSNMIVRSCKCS
Method: as §2, §3

TGF-β2 = biological target: T2, TGF-β2 (Homo sapiens, UniProt P61812); assay: TGF-β2 binding to biotinylated FMOD/FMOD peptides on avidin resin; non-bound TGF-β read by Mv1Lu growth inhibition (MTT); conditions: ratios 1:1, 10:1, 100:1, 1000:1 to TGF-β; FIG. 14
T2 sequence (P61812 303-414 limits assumed): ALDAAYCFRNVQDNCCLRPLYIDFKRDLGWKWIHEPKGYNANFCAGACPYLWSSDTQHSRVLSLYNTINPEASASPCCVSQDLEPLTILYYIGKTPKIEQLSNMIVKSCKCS
Method: as §2, §3

Rat-2 cells [5] = assay: H&E morphology of Rat-2 cells; assay type: cell-based
Method: Exemplary tests were performed to better delineate cell morphology.

[6] = 100 pM TGF-β1 and 200 nM FMOD combined treatment

rank order of binding to TGF-β isoforms (TGF-β3; comparison of FIGS. 13-15): TGF-β1>TGF-β2>TGF-β3
B1: FMOD: recombinant human fibromodulin whole protein (SEQ ID NO:1) produced in CHO-K1 (protein, listed as Homo sapiens)
chain: MQWTSLLLLAGLFSLSQAQYEDDPHWWFHYLRSQQSTYYDPYDPYPYETYEPYPYGVDEGPAYTYGSPSPPDPRDCPQECDCPPNFPTAMYCDNRNLKYLPFVPSRMKYVYFQNNQITSIQEGVFDNATGLLWIALHGNQITSDKVGRKVFSKLRHLERLYLDHNNLTRMPGPLPRSLRELHLDHNQISRVPNNALEGLENLTALYLQHNEIQEVGSSMRGLRSLILLDLSYNHLRKVPDGLPSALEQLYMEHNNVYTVPDSYFRGAPKLLYVRLSHNSLTNNGLASNTFNSSSLLELDLSYNQLQKIPPVNTNLENLYLQGNRINEFSISSFCTVVDVVNFSKLQVLRLDGNEIKRSAMPADAPLCLRLASLIEI
fibroblast proliferation [1]: significantly increased fibroblast proliferation
cell migration/invasion in Matrigel (Rat-2 cells [2]; 200 nM combined with 100 pM TGF-β1, 24 hour treatment): induced significant migration
cell migration/invasion in Matrigel (Rat-2 cells [2]; 200 nM combined with 100 pM TGF-β3, 24 hour treatment): decreased TGF-β3 mediated inhibition of migration
cell migration/invasion in Matrigel (Rat-2 cells [2]; alone (200 nM FMOD or peptide, or 100 pM TGF-β), 24 hour treatment): induced Rat-2 moderate migration
TGF-β3 binding (TGF-β3; ratios 1:1, 10:1, 100:1, 1000:1 to TGF-β, FIG. 15): TGF-β3 binding that also expectedly increased with higher FMOD protein ratios up to 1:100
cell migration, scratch (Rat-2 cells [3]; 200 nM combined with 100 pM TGF-β1, 24 hours): induced significant migration
cell migration, scratch (Rat-2 cells [3]; 200 nM combined with 100 pM TGF-β3, 24 hours): decreased TGF-β3 mediated inhibition of migration
cell migration, scratch (Rat-2 cells [3]; alone (200 nM FMOD or 100 pM TGF-β), 24 hours): induced Rat-2 minimal migration
cell aggregation ([4]; 100 pM TGF-β1+200 nM FMOD): significant cell aggregation
CTGF expression ([4]; 100 pM TGF-β1+200 nM FMOD, FIG. 21D): significantly higher CTGF expression
cell morphology ([4]; 200 nM FMOD alone, compared to the control group): more flat and spread out when compared to the control group
CTGF expression (green fluorescence) ([4]; TGF-β1/FMOD combo-treatment relative to TGF-β1 mono-treatment, FIG. 24): significantly increases expression of CTGF
cell morphology ([4]; TGF-β1/FMOD combo-treatment, FIG. 24): much more densely packed, aggregated cells with a significant degree of nodule formation
CTGF expression ([4]; mono-treatment (200 nM FMOD or 100 pM TGF-β1), FIGS. 21B, 21C): Minimal CTGF expression
TGF-β1 binding (TGF-β1): TGF-β1 binding that also increased with higher FMOD protein ratios
TGF-β2 binding (TGF-β2): TGF-β2 binding that also expectedly increased with higher FMOD protein ratios
cell density (H&E) (Rat-2 cells [5]; [6]): significantly increased cell density
nodule size (Rat-2 cells [5]; [6]): increased nodule size
nodule number (Rat-2 cells [5]; 100 pM TGF-β1 and 200 nM FMOD combined treatment, 8-well chamber slides): about four
cell morphology (H&E) (Rat-2 cells [5]; 200 nM FMOD alone, FIG. 22): flat, spread-out Rat-2 cell morphology
cell aggregation/density (H&E) (Rat-2 cells [5]; mono-treatment (200 nM FMOD or 100 pM TGF-β1), relative to controls): lower cell aggregation/density relative to controls
